Tests used:
[1] = target: T1, MLO-Y4 cell surface proteins (Mus musculus, UniProt P55292); assay: Crosslinking/co-immunoprecipitation/mass spectrometry (TMT quantitative proteomics) to identify irisin receptors; assay type: binding; details: co-precipitated protein Dsc2 (DSC2_MOUSE)
T1 construct: endogenous in cells; host or cells: MLO-Y4
T1 sequence (P55292 136-902): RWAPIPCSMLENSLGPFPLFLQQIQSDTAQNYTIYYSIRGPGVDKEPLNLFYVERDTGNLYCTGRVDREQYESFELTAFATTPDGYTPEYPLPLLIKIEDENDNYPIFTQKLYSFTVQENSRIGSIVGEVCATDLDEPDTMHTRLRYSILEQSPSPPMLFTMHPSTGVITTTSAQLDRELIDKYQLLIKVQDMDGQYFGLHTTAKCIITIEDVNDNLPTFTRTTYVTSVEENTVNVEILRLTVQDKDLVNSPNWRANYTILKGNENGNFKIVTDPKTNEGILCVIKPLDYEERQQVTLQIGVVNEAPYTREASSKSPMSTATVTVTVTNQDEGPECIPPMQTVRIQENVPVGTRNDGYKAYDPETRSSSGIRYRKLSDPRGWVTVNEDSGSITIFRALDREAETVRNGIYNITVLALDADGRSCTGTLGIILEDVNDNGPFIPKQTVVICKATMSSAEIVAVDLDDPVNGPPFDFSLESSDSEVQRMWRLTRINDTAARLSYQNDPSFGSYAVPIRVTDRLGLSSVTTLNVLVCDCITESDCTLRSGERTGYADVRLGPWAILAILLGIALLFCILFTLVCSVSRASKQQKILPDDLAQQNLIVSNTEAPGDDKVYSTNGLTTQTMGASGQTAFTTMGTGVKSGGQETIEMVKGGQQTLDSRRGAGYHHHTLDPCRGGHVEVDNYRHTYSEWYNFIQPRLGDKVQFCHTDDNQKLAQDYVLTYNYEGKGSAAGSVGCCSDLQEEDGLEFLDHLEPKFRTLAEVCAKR
Summary of the method: (§1)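 Mouse MLO-Y4 cells were switched to serum-free FreeStyle medium for 4 h, chilled, then exposed to 10 nM His-tagged irisin (or adipsin as control) for 20 min. Cells were crosslinked with 1.5 mM DTSSP (30 min, ice), and bound proteins were pulled down on Ni-NTA and eluted with 250 mM imidazole. Eluates were separated by SDS-PAGE, trypsin-digested in gel, TMT 6-plex labelled and quantified by MS3-based LC-MS/MS on an Orbitrap Fusion Lumos.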

[2] = target: T2, MLO-Y4 cell surface proteins (Mus musculus, UniProt Q9D3P1); assay: as above; assay type: binding; details: co-precipitated protein Tchhl1 (TCHL1_MOUSE)
T2 construct: endogenous in cells; host or cells: MLO-Y4
T2 sequence (Q9D3P1 1-638): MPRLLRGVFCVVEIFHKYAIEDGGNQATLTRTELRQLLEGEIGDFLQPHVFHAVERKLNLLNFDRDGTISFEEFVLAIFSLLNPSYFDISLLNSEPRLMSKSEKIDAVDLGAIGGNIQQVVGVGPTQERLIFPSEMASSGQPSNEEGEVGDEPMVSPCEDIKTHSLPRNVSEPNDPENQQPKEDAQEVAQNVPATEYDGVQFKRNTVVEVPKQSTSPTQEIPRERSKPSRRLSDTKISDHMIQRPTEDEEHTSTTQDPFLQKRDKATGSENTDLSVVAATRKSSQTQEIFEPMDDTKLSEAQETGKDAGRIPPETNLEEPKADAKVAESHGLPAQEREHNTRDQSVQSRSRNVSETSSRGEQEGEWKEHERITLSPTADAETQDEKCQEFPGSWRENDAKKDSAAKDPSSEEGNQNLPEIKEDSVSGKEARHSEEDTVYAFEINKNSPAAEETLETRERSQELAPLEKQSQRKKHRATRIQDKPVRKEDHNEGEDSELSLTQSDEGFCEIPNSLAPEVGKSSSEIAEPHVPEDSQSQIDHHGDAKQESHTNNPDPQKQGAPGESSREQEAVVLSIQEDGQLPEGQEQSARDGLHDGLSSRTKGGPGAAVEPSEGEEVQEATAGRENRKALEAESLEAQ
Summary of the method: as §1

TMT signal-to-noise ratio [1]: 93.7977
TMT signal-to-noise ratio [2]: 1810.14
Substance: adipsin
